From US20210332123A1 (SUZHOU KANOVA BIOPHARMACEUTICAL, published 2021) come the findings set out here.

Test [1] concerns the target T1, mouse IL-25 (mouse, UniProt Q8VHH8 17-169, limits assumed).
T1 construct: In-house production
T1 sequence (looked up): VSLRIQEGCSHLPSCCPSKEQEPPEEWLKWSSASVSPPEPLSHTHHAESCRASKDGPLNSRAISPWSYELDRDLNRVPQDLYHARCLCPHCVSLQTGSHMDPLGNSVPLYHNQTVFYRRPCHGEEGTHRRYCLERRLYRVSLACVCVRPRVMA
As to the kind of experiment: ELISA, plate coated with mouse IL-25, OD450, Example 7; unit from the axis lg(nM) [panel Mouse IL-25]. On the technique in general: ELISA stands for enzyme-linked immunosorbent assay.

In test [2] the target is T2, human IL-25 (human, UniProt Q9H293 33-177).
T2 construct: ELISA used bought R&D systems #1258-IL-025/CF; Treated as one molecule; also called IL-17E; human IL-17E
T2 sequence (looked up): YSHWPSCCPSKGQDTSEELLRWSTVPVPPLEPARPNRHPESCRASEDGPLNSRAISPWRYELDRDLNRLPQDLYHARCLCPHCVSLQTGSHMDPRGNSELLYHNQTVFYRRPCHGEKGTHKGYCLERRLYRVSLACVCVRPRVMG
In words: ELISA, plate coated with human IL-25 (hIl25-HIS), OD450, Example 4; unit from the axis lg(nM) and paragraph 95. The protocol: MaxiSorp 96-well plates (NUNC #449824, www.thermofisher.com) were coated with 2 μg/ml human IL-25 (R&D systems #1258-IL-025/CF) in 1×PBS (50 μl/well). Plates were incubated at 4° C. overnight. Coating solution was removed and plates were washed once with 200 μl/well PBST (1×PBS with 0.05% tween-20). Then 200 μl/well blocking buffer (1×PBS with 0.05% tween-20, 3% BSA) were added and incubated at room temperature for 1 hour. Blocking buffer was removed and plates were washed three times with 200 μl/well PBST (1×PBS with 0.05% tween-20). Anti-IL-25 antibodies (produced in Example 2) were diluted to 10, 3.33, 1.11, 0.37, 0.123, 0.041, 0.0137, 0.0046, 0.0015, 0.00031, 0.000102, 0.000034 μg/ml by 1×PBS and added to plates (50 μl/well). Plates were incubated at room temperature for 2 hours. Antibodies in the wells were removed and plates were washed three times with 200 μl/well PBST (1×PBS with 0.05% tween-20). Goat anti-human IgG (H&L)-HRP secondary antibody (Jackson Immuno Research #109-035-088, www.jacksonimmuno.com) was diluted 1:5000 in 1×PBS and added to each well (50 μl/well). Plates were incubated at room temperature for 1 hour. Secondary antibody was removed and plates were washed seven times with 200 μl/well PBST (1×PBS with 0.05% tween-20) each time. 50 μl/well TMB (eBioscience #85-00-4201-56, www.ebioscience.com) was added and plates were incubated at room temperature for several minutes. Then 50 μl/well 2N H₂SO₄ was added to stop the reaction. Optical density was measured at 450 nm in relation to human IL-25 binding.

Test [3] concerns the target T2, human IL-25. As to the kind of experiment: cell-based or functional assay.

By EC50 is commonly meant the concentration that produces a half-maximal response.

B1: VH1-2-VL2-1 (antibody, V domains shown)
VH: QVTLKESGPTLLKPTQTLTLTCTFSGFSLSTSGMGLGWIRQPPGKALEWLAHIWWDDVKHYKPALKSRLTITKDTSKNQVVLTITNVDPVDTATYYCARMGQLHYYGYDYAMDYWGQGTLVTVSS
VL: DIQLTQSPSFLSASVGDRVTITCSASSSVSYMYWYQQKPGKAPKPLIYRTSNLASGVPSRFSGSGSGTEYTLTISSMQPEDFATYYCQLYHSYPPTWTFGQGTKLEIK
notes: also called antibody formed by VH1-2 and VL2-1; copies: 2 + 2
Take B1: the EC50 in test [1] was 0.215 nM; in test [2], 0.208 nM. Moreover, the “IC50, CXCL1/GROalpha production of HT-29 cells stimulated by human IL-25 [B]” value in test [3] stood at 11.4 nM.
